# Residue numbers refer to the chain shown, from its start. In names and notes the source's numbering stands. Several values for one entry are separate records, joined by “and”; a condition that tells them apart may be missing. Identical values can stand only once. No end group written: not given here.
# T1: Med25-ACID R568A (Arabidopsis thaliana, UniProt Q7XYY2 532-680, R568A)
# T1 sequence: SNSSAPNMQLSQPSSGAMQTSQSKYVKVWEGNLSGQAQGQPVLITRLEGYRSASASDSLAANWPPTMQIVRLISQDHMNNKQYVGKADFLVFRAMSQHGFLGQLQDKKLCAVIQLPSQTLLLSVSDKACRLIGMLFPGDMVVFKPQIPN
# T2: Med25-ACID_(532-680), activator interaction domain (ACID) of mediator complex subunit 25 (Arabidopsis thaliana, UniProt Q7XYY2 532-680)
# T2 chain: T1 sequence with A37R
# T3: Med25-ACID_(532-680), activator interaction domain (ACID) of mediator complex subunit 25 (Arabidopsis thaliana, UniProt Q7XYY2 532-680)
# T3 construct: 15N- or 13C,15N-labelled in the NMR titrations; unlabelled in ITC, CEST and stopped-flow; also called AtMed25-ACID; ACID domain; source: E. coli BL21 DE3, purified (glutathione Sepharose, TEV cleavage, cation exchange, SEC); not shown: GST, N-terminal, cleaved
# T3 sequence (looked up): T1 sequence with A37R
# B1: DREB2A_(195-276) (domain or fragment, Arabidopsis thaliana, UniProt O82132 195-276, looked up)
# chain: VKADKHWLSEFEHNYWSDILKEKEKQKEQGIVETCQQQQQDSLSVADYGWPNDVDQSHLDSSDMFDVDELLRDLNGDDVFAG
# notes: source: E. coli BL21 DE3, purified (glutathione Sepharose, TEV cleavage, SEC); not shown: GST, N-terminal, cleaved
# B2: DREB2A_(234-276,P245A) (domain or fragment, Arabidopsis thaliana, UniProt O82132 234-276, looked up)
# chain: QDSLSVADYGWANDVDQSHLDSSDMFDVDELLRDLNGDDVFAG
# notes: Isotope-labelled in the CEST experiments; also called ABS-RIM_(P245A); DREB2A_(P245A); source: E. coli BL21 DE3, purified (glutathione Sepharose, TEV cleavage, SEC); not shown: GST, N-terminal, cleaved
# B3: DREB2A_(195-276) D241A (domain or fragment, Arabidopsis thaliana, UniProt O82132 195-276, looked up)
# chain: B1 chain with D47A
# notes: as for B1
# B4: DREB2A_(195-276) E263P (domain or fragment, Arabidopsis thaliana, UniProt O82132 195-276, looked up)
# chain: B1 chain with E69P
# notes: also called helix-disrupting DREB2A E263P variant; source: E. coli BL21 DE3, purified (glutathione Sepharose, TEV cleavage, SEC); not shown: GST, N-terminal, cleaved
# B5: DREB2A_(195-276) F259A (domain or fragment, Arabidopsis thaliana, UniProt O82132 195-276, looked up)
# chain: B1 chain with F65A
# notes: as for B1
# B6: DREB2A_(195-276) F274A (domain or fragment, Arabidopsis thaliana, UniProt O82132 195-276, looked up)
# chain: B1 chain with F80A
# notes: as for B1
# B7: DREB2A_(195-276) L237A (domain or fragment, Arabidopsis thaliana, UniProt O82132 195-276, looked up)
# chain: B1 chain with L43A
# notes: as for B1
# B8: DREB2A_(195-276) V239A (domain or fragment, Arabidopsis thaliana, UniProt O82132 195-276, looked up)
# chain: B1 chain with V45A
# notes: as for B1
# B9: DREB2A_(195-276) W244A (domain or fragment, Arabidopsis thaliana, UniProt O82132 195-276, looked up)
# chain: B1 chain with W50A
# notes: as for B1
# B10: DREB2A_(151-335) (domain or fragment, Arabidopsis thaliana, UniProt O82132 151-335, looked up)
# chain: VCTVETPGCVHVKTEDPDCESKPFSGGVEPMYCLENGAEEMKRGVKADKHWLSEFEHNYWSDILKEKEKQKEQGIVETCQQQQQDSLSVADYGWPNDVDQSHLDSSDMFDVDELLRDLNGDDVFAGLNQDRYPGNSVANGSYRPESQQSGFDPLQSLNYGIPPFQLEGKDGNGFFDDLSYLDLEN
# notes: also called C-terminal intrinsically disordered region (IDR) of DREB2A; source: E. coli BL21 DE3, purified (glutathione Sepharose, TEV cleavage, SEC); not shown: GST, N-terminal, cleaved
# B11: DREB2A_(234-272) (domain or fragment, Arabidopsis thaliana, UniProt O82132 234-272, looked up)
# chain: QDSLSVADYGWPNDVDQSHLDSSDMFDVDELLRDLNGDD
# notes: DREB2A, Arabidopsis thaliana, AT5G05410, residues 234-272; source: E. coli BL21 DE3, purified (glutathione Sepharose, TEV cleavage, SEC); not shown: GST, N-terminal, cleaved
# B12: DREB2A_(234-256) (ABS) (domain or fragment, Arabidopsis thaliana, UniProt O82132 234-256, looked up)
# chain: QDSLSVADYGWPNDVDQSHLDSS
# notes: also called monovalent ABS fragment; source: E. coli BL21 DE3, purified (glutathione Sepharose, TEV cleavage, SEC); not shown: GST, N-terminal, cleaved
# B13: DREB2A_(195-335,Δ244-276) (domain or fragment, Arabidopsis thaliana, UniProt O82132 195-335, looked up)
# chain: VKADKHWLSEFEHNYWSDILKEKEKQKEQGIVETCQQQQQDSLSVADYGLNQDRYPGNSVANGSYRPESQQSGFDPLQSLNYGIPPFQLEGKDGNGFFDDLSYLDLEN
# notes: also called splice variant fragment; source: E. coli BL21 DE3, purified (glutathione Sepharose, TEV cleavage, SEC); not shown: GST, N-terminal, cleaved
# B14: DREB2A_(234-335) (domain or fragment, Arabidopsis thaliana, UniProt O82132 234-335, looked up)
# chain: QDSLSVADYGWPNDVDQSHLDSSDMFDVDELLRDLNGDDVFAGLNQDRYPGNSVANGSYRPESQQSGFDPLQSLNYGIPPFQLEGKDGNGFFDDLSYLDLEN
# notes: DREB2A, Arabidopsis thaliana, AT5G05410, residues 234-335; source: E. coli BL21 DE3, purified (glutathione Sepharose, TEV cleavage, SEC); not shown: GST, N-terminal, cleaved
# B15: FITC-DREB2A_(234-276) (domain or fragment, Arabidopsis thaliana, UniProt O82132 234-276, looked up)
# chain: B2 chain with A12P
# modifications: also: single FITC label, position not given here
# notes: also called FITC-labeled ABS-RIM; single-labeled FITC-DREB2A; source: E. coli BL21 DE3, purified; labeled with a FITC labeling kit (Pierce) and purified by reversed phase chromatography; not shown: GST, N-terminal, cleaved
# Biological target: T1, Med25-ACID R568A
# Test: ITC
# Conditions: not given
row,Molecule,Kd
1,B1,3.2 µM and 2.9 µM

# Biological target: T2, Med25-ACID_(532-680), activator …
# Test: stopped-flow, cis proline isomer, 10 °C
# Conditions: not given
row,Molecule,koff [s⁻¹]
1,"QDSLSVADYGWPNDVDQSHLDSSDMFDVDELLRDLNGDDVFAG (domain or fragment, also: FITC label, position not given here)",6

# Biological target: T2, Med25-ACID_(532-680), activator …
# Test: NMR; first site (Kd,1), competitive two binding sites model
# Conditions: not given
row,Molecule,Kd [µM]
1,SSDMFDVDELLRDLNGDDVFAG (domain or fragment) [DREB2A_(255-276) (RIM)],280

# Biological target: T3, Med25-ACID_(532-680), activator …
# Test: ITC; 25 °C; 50 mM HEPES pH 7.4, 100 mM NaCl, 0.5 mM TCEP; ~1:10 cell to syringe concentration ratio, cell around 15 µM for high-affinity fragments; one-set-of-sites model; which protein was in the cell is not stated
# Conditions: both partners purified
Molecule,Kd [µM],dH [kcal/mol],stoichiometry N
B2,0.78 ± 0.06,-10.4 ± 0.191,1.26 ± 0.01
B1,0.45,-12.2,1.09
B3,2 ± 0.7,-8.84 ± 1.67,1.07 ± 0.06
B4,0.58 ± 0.04,-14.6 ± 0.191,1 ± 0.06
B5,0.55 ± 0.05,-14.1 ± 0.215,1.2 ± 0.1
B6,0.66 ± 0.09,-14.8 ± 0.478,0.86 ± 0.02
B7,2.4 ± 0.3,-5.47 ± 0.167,1.03 ± 0.06
B8,2 ± 0.2,-10 ± 0.239,0.95 ± 0.01
B9,1.9 ± 0.2,-11.2 ± 0.239,1 ± 0.1
B10,,-12.5,1.1
B11,1.8,-10.3,0.97
B12,6,-12.9,0.86
B13,5.4,-14.1,1.02
B14,0.44,-13.9,1

# Biological target: Med25-ACID_(532-680), activator interaction domain (ACID) of mediator complex subunit 25 (Arabidopsis thaliana) (UniProt Q7XYY2)
# Test: NMR titration; 15N-HSQC; 100-150 µM 15N-labeled Med25-ACID(532-680) at constant concentration with increasing DREB2A ligand; 20 mM Na2HPO4/NaH2PO4 pH 6.5, 100 mM NaCl; chemical shift perturbations
# Conditions: not given
Molecule,KD (binding surface site) [µM],"KD (binding surface site, by NMR) [µM]",KD (groove site) [µM]
DREB2A_(255-276) (RIM) (from UniProt O82132 255-276) (domain or fragment),3000 to 6000,5000,200 to 400

# Biological target: T2, Med25-ACID_(532-680), activator …
# Test: stopped-flow, trans proline isomer, 10 °C
# Conditions: not given
row,Molecule,koff [s⁻¹]
1,"QDSLSVADYGWPNDVDQSHLDSSDMFDVDELLRDLNGDDVFAG (domain or fragment, also: FITC label, position not given here)",24

# Biological target: T2, Med25-ACID_(532-680), activator …
# Test: NMR; second site (Kd,2), competitive two binding sites model
# Conditions: not given
row,Molecule,Kd [µM]
1,SSDMFDVDELLRDLNGDDVFAG (domain or fragment) [DREB2A_(255-276) (RIM)],4700

# Biological target: RCD1 RST (Arabidopsis thaliana) (UniProt Q8RY59)
# Test: not given
# Conditions: cited from earlier work
row,Molecule,Kd [µM]
1,DREB2A (from UniProt O82132),0.012

# Biological target: T4, Med25-ACID (Arabidopsis thaliana, UniProt Q7XYY2)
# T4 construct: Med25-ACID532-680 (AT1G25540), expressed in E. coli with N-terminal GST tag removed by TEV protease
# T4 sequence (Q7XYY2 532-680): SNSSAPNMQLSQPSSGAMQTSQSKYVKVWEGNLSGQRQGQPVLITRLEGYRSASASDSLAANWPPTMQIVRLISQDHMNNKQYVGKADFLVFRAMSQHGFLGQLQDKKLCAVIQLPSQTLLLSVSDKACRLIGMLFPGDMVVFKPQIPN
# Test: not given
# Conditions: SD
# Description: All protein fragments were produced with an N-terminal Glutathione-S-transferase (GST) tag which was removed using Tobacco Etch Virus (TEV) protease and expressed from E.coli BL21 DE3 cells. DREB2A (AT5G05410) variants were expressed at 37 °C for three hours. The DREB2A splice variant (AT5G05410.2) was based on GenBank ID CD530293[21]. Due to stability and aggregation considerations, Med25-ACID (AT1G25540) was expressed with additional N-terminal residues. Expression of Med25-ACID532-680 was induced at high OD (0.8-1.0) and cultured overnight at 18 °C. Cells were resuspended in 20 mM Tris-HCl pH 8.0, 100 mM NaCl lysis buffer and sonicated. The lysate was incubated with glutathione Sepharose for one hour and washed using the lysis buffer. Aliquots of 5 mL resin were resuspended in 20 mL of lysis buffer with 5 mM dithiothreitol (DTT) and 1 mM EDTA and the protein was cleaved overnight at 4 °C using TEV protease. For DREB2A, cleaved protein was freeze-dried and buffer-changed to experimental buffer using size exclusion chromatography. Med25-ACID was further purified using cation exchange (Source 15 S) at pH 8.5 and the buffer was changed using size exclusion chromatography (Superdex S75 10/300 GL). Isotope-labeled proteins were produced by growing the initial culture in lysogenic broth and transferring to half volume M9 minimal media 30 min before induction.
# ITC was performed on either a MicroCal ITC200 or a Malvern Pananalytical PEAQ-ITC. All ITC experiments were performed using a 50 mM HEPES pH 7.4, 100 mM NaCl and 0.5 mM tris(2-carboxyethyl)phosphine (TCEP) buffer. All experiments were performed using a ~ 1:10 cell to syringe protein concentration ratio. For high-affinity DREB2A fragments, the cell concentration was around 15 µM, while lower-affinity interaction experiments used higher concentrations. Samples were degassed by centrifuging at 20,000 x g for 20 minutes at experimental temperature. For three DREB2A fragments, experiments were performed over a range of temperatures to determine the ΔCp. Reported thermodynamic parameters are given at 25 °C. Data were analyzed using Origin and inhouse scripts using the one-set-of-sites model as documented by MicroCal and Origin. Dilution heats were fitted using an offset parameter. Most experiments were performed using a 0.5 µl initial injection, which was discarded in the analysis, followed by 18 injections of 2.0 µl.
row,Molecule,Kd [µM]
1,DREB2A195-276 F274A,0.66 ± 0.09
2,DREB2A195-276 L237A,2.4 ± 0.3
3,DREB2A195-276 F259A,0.55 ± 0.05
4,"DREB2A195-335,Δ244-276 (splice variant fragment) [195–335 ∆244–276]",5.4 ± 0.6
5,DREB2A195-276 D241A,2 ± 0.7
6,DREB2A195-276 W244A,1.9 ± 0.2
7,DREB2A234-335 [234–335],0.44 ± 0.06
8,DREB2A195-276 E263P,0.58 ± 0.04
9,DREB2A151-335 [151–335],0.54 ± 0.04
10,DREB2A195-276 V239A,2 ± 0.2

# Biological target: T3, Med25-ACID_(532-680), activator …
# Test: stopped-flow fluorescence; FITC-DREB2A (50 nM 234-276 or 250 nM 234-256) mixed with increasing Med25-ACID(532-680), pseudo-first-order; dissociation by competitive displacement with unlabeled DREB2A; 50 mM HEPES pH 7.4, 100 mM NaCl, 1 mM DTT; Fig. 7 legend gives kinetic rate constants at 10 °C
# Conditions: both partners purified
row,Molecule,binding result
1,B15,binds
